The values below come from patent US20240174748A1 (INNATE PHARMA, published 2024).

The target of this assay is T1, Cynomolgus NKp46 (Macaca fascicularis (cynomolgus), UniProt Q95JB9 22-254).
T1 construct: also called cynomologus NKp46; macaca fascicularis NKp46
In words: not stated (human IgG1).

T1 sequence (Q95JB9 22-254): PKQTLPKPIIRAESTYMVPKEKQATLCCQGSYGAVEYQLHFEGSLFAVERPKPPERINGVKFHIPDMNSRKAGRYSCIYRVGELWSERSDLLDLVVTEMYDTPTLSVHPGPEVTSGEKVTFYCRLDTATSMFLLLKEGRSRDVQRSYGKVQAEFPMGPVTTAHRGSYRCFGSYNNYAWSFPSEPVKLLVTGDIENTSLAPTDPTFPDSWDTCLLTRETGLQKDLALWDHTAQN

B1: NKp46-4 H2L2 (antibody, human IgG1, V domains shown)
VH: QVQLVQSGAEVKKPGASVKVSCKASGYTFTSFTMHWVRQAPGQGLEWIGYINPSSGYTEYNQKFKDRTTITADKSTSTAYMELSSLRSEDTAVYYCVRGSSRGFDYWGQGTLVTVSS
VL: DIQMTQSPSSLSASVGDRVTITCRASENIYSNLAWFQQKPGKAPKLLVYAATNLADGVPSRFSGSGSGTDYTLTISSLQPEDFATYYCQHFWGTPRTFGGGTKVEIK
notes: Produced as human IgG1
On to B1, for which the “fold lower affinity for cynomolgus NKp46 than for human NKp46” value turned out to be 10 fold.

B2: NKp46-4 H3L2 (antibody, human IgG1, V domains shown)
VH: QVQLVQSGAEVKKPGASVKVSCKASGYTFTSFTMHWVRQAPGQGLEWIGYINPSSGYTEYNQKFKDRTTLTADKSTSTAYMELSSLRSEDTAVYYCVRGSSRGFDYWGQGTLVTVSS
VL: DIQMTQSPSSLSASVGDRVTITCRASENIYSNLAWFQQKPGKAPKLLVYAATNLADGVPSRFSGSGSGTDYTLTISSLQPEDFATYYCQHFWGTPRTFGGGTKVEIK
notes: Produced as human IgG1
As to B2, the “fold lower affinity for cynomolgus NKp46 than for human NKp46” value stood at 10 fold.
